{
  "source": "paper doi:10.1101/2023.04.10.536218",
  "molecular_target": "major capsid protein VP1 of sheep polyomavirus (ShPyV) (sheep polyomavirus (ShPyV))",
  "experiment": "crystal structure",
  "data": [
    {"substance": "major capsid protein VP1 of sheep polyomavirus (ShPyV) (natural protein)", "values": [
      {"measurement": "stoichiometry N", "value": 5}
    ]}
  ]
}
